Measured values taken from the supplement of paper PMC10126150.
± gives the standard deviation of the averaged measurements.

Test system: ATP
Experiment: switch fluorescence ratio, 500 uM ATP over buffer (Cy3 cluster intensity, sum of 5 cycles each) (fold (ratio)); higher = stronger signal-on switching upon ATP binding; sequences stand for … in TCGTCGGCAGCGTCAGATGTGTATAAGAGACAGTTTTTTTTTTTTTTTTTTTTTTTTT…TC
Conditions: aptamer strand: ATP DNA aptamer (quencher-CACCTGGGGGAGTATTGCGGAGGAAGG + anchor), 100 nM annealed; ATP concentration: 500 uM
Outline: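 Cy3-labelled switching-strand clusters on a modified Illumina MiSeq flow-cell were annealed to 100 nM quencher-labelled ATP aptamer and imaged first in selection buffer, then after 15 min with 500 uM ATP at 22 °C. NaOH stripping and re-annealing separated each of five buffer/ATP cycles, and clusters outside 100-1000 RFU were excluded. The fluorescence ratio sums target-cycle Cy3 intensity over buffer-cycle Cy3 intensity per cluster and averages it per switch-domain sequence.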
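Note: ATP exposure 15 min at 22 °C before imaging.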

| Sequence | switch fluorescence ratio |
| --- | --- |
| TGCTCCAAGT | 1.03 ± 0.013 |
| TGCTCCTTTT | 1 ± 0.034 |
| TGCTCGGATG | 0.993 ± 0.03 |
| TGCTCGGGAC | 1.09 ± 0.047 |
| TGCTCTACCT | 1.18 ± 0.057 |
| TGCTCTGCGT | 1.17 ± 0.012 |
| TGCTGAATCT | 0.996 ± 0.046 |
| TGCTGACCGA | 1.04 ± 0.035 |
| TGCTGCGGCT | 1.01 ± 0.019 |
| TGCTGCTAGC | 0.985 ± 0.036 |
| TGCTGGAGGG | 0.955 ± 0.011 |
| TGCTGGATGA | 1 ± 0.047 |
| TGCTGGCGCG | 1 ± 0.033 |
| TGCTGGGCC | 1.02 ± 0.083 |
| TGCTGGGGCG | 0.9876 ± 0.0022 |
| TGCTGGGGGT | 1.03 ± 0.068 |
| TGCTGGGGTG | 1.04 ± 0.1 |
| TGCTTAAGAT | 0.99 ± 0.023 |
| TGCTTATCTG | 0.99 ± 0.032 |
| TGCTTATTTT | 1.01 ± 0.065 |
| TGCTTCTGAA | 0.9635 ± 0.0092 |
| TGCTTCTTTG | 0.979 ± 0.011 |
| TGCTTGGGTA | 1.01 ± 0.021 |
| TGCTTTAAAC | 0.995 ± 0.032 |
| TGCTTTTTGG | 1.01 ± 0.032 |

| Sequence | switch fluorescence ratio |
| --- | --- |
| TGGAAAAAAG | 0.9901 ± 0.0015 |
| TGGAAAAAG | 0.989 ± 0.053 |
| TGGAAAACTT | 1.11 ± 0.16 |
| TGGAACAGGG | 1.03 ± 0.036 |
| TGGAACTTTT | 0.974 ± 0.021 |
| TGGAAGCCGG | 0.957 ± 0.037 |
| TGGAAGGAAG | 0.9998 ± 0.0073 |
| TGGAAGGGTT | 0.994 ± 0.028 |
| TGGAAGTGAG | 0.969 ± 0.055 |
| TGGAAGTTAG | 0.964 ± 0.029 |
| TGGAATGGAT | 1.01 ± 0.043 |
| TGGAATTTTT | 0.987 ± 0.03 |
| TGGACCATTT | 1.01 ± 0.0021 |
| TGGACCGGGG | 1.016 ± 0.0034 |
| TGGACGCGGG | 1.03 ± 0.016 |
| TGGACGGGGA | 1.03 ± 0.031 |
| TGGACGTTGA | 0.994 ± 0.033 |
| TGGACTTATA | 1.02 ± 0.012 |
| TGGACTTGGA | 0.9869 ± 0.0031 |
| TGGAGATTGG | 0.969 ± 0.023 |
| TGGAGCCCCG | 0.999 ± 0.015 |
| TGGAGCGCCG | 1.01 ± 0.028 |
| TGGAGCTCTG | 0.981 ± 0.027 |
| TGGAGGCTTT | 1.009 ± 0.0073 |
| TGGAGGGAGG | 1.01 ± 0.023 |

| Sequence | switch fluorescence ratio |
| --- | --- |
| TGGAGGGGAT | 1.02 ± 0.075 |
| TGGAGGGGGC | 1.01 ± 0.046 |
| TGGAGGGTCG | 1.021 ± 0.0023 |
| TGGAGTACGG | 1.008 ± 0.0036 |
| TGGAGTTACT | 0.994 ± 0.061 |
| TGGAGTTAGA | 0.996 ± 0.035 |
| TGGATAAGGT | 1.05 ± 0.13 |
| TGGATAAGTT | 1.03 ± 0.025 |
| TGGATAGGGT | 0.961 ± 0.037 |
| TGGATATGAT | 0.998 ± 0.0028 |
| TGGATATGGT | 1.01 ± 0.013 |
| TGGATCATAA | 0.973 ± 0.068 |
| TGGATCATGG | 0.9753 ± 0.009 |
| TGGATCTTCG | 0.9903 ± 0.0077 |
| TGGATGCGGG | 1.02 ± 0.032 |
| TGGATGGAGA | 1.006 ± 0.008 |
| TGGATGGCC | 1.02 ± 0.032 |
| TGGATGGCCC | 1.02 ± 0.016 |
| TGGATGGGGG | 0.992 ± 0.022 |
| TGGATGTCGT | 1.008 ± 0.0094 |
| TGGATGTGAT | 1.03 ± 0.049 |
| TGGATGTGGG | 1.03 ± 0.031 |
| TGGATGTTTG | 1.02 ± 0.018 |
| TGGATTAGAG | 0.9672 ± 0.0022 |
| TGGATTAGGT | 1.01 ± 0.021 |

| Sequence | switch fluorescence ratio |
| --- | --- |
| TGGATTATAG | 1.02 ± 0.033 |
| TGGATTTGGA | 0.999 ± 0.02 |
| TGGATTTGGT | 0.988 ± 0.012 |
| TGGATTTTGG | 0.98 ± 0.021 |
| TGGCAATTAG | 1.1 ± 0.074 |
| TGGCACCTTT | 1.11 ± 0.036 |
| TGGCACGGGC | 1.02 ± 0.047 |
| TGGCAGAGGC | 1.04 ± 0.038 |
| TGGCAGTCGG | 0.978 ± 0.019 |
| TGGCATTTTT | 0.991 ± 0.025 |
| TGGCCACTT | 0.986 ± 0.023 |
| TGGCCGGGCA | 2.13 ± 1.6 |
| TGGCGAAGGT | 0.9747 ± 0.0085 |
| TGGCGCTTTT | 0.9976 ± 0.0079 |
| TGGCGGCTGG | 0.996 ± 0.018 |
| TGGCGGGGCA | 0.998 ± 0.035 |
| TGGCGGTGGC | 0.9806 ± 0.006 |
| TGGCGTAGGT | 1.005 ± 0.0083 |
| TGGCGTAGTT | 0.991 ± 0.037 |
| TGGCGTGTCA | 1.02 ± 0.051 |
| TGGCGTTTAC | 1.46 ± 0.64 |
| TGGCGTTTTG | 0.9687 ± 0.0069 |
| TGGCTCAGGC | 1 ± 0.025 |
| TGGCTCTCAT | 1.02 ± 0.017 |
| TGGCTGTTGA | 1.01 ± 0.018 |
